According to the Human Domainome abundance scans (Beltran et al. 2025):
± gives the uncertainty stated by the source.

B1: RUN and FYVE domain-containing protein 1, residues 639 to 698; numbered along this chain, Q96T51 (parent)
chain: WLKDDEATHCRQCEKEFSISRRKHHCRNCGHIFCNTCSSNELALPSYPKPVRVCDSCHTL

Variants of: B1
Assay: abundance fitness (aPCA) (normalised: wild type 0, dead -1); higher = more abundant; growth selection in yeast, the domain comes from the species named
Conditions: Homo sapiens

Variant | abundance fitness
S56E | 0.331 ± 0.06
S56N | 0.246 ± 0.078
S56F | 0.271 ± 0.061
S56M | 0.165 ± 0.053
S56P | 0.24 ± 0.043
S56T | 0.284 ± 0.051
S56C | 0.03 ± 0.074
S56H | 0.355 ± 0.081
S56Y | 0.188 ± 0.056
H9W | -0.532 ± 0.057
H9K | -0.09 ± 0.046
H9Q | -0.248 ± 0.061
H9M | -0.108 ± 0.046
H9E | -0.418 ± 0.08
H9G | -0.22 ± 0.05
D55Y | -0.31 ± 0.32
Q12R | -0.303 ± 0.051
Q12G | 0.208 ± 0.034
Q12M | -0.27 ± 0.055
Q12D | -0.051 ± 0.053
Q12A | -0.171 ± 0.044
Q12Y | -0.279 ± 0.082
Q12E | -0.225 ± 0.047
F33E | -0.576 ± 0.086

Variant | abundance fitness
F33P | -0.888 ± 0.091
F33R | -0.6 ± 0.053
F33V | 0.076 ± 0.038
W1Y | 0.311 ± 0.084
W1M | 0.253 ± 0.057
W1L | -0.05 ± 0.064
W1N | 0.251 ± 0.099
W1T | -0.286 ± 0.19
W1C | 0.094 ± 0.075
Y47S | -0.081 ± 0.044
Y47N | 0.019 ± 0.073
Y47M | -0.134 ± 0.084
Y47I | -0.197 ± 0.07
Y47E | -0.062 ± 0.051
K3Y | -0.529 ± 0.081
K3N | -0.133 ± 0.052
K3H | -0.42 ± 0.089
K3R | -0.618 ± 0.055
K3Q | -0.664 ± 0.095
K3M | -0.431 ± 0.073
K3I | -0.393 ± 0.09
N28L | -0.342 ± 0.043
N28S | -0.099 ± 0.038
N28V | -0.285 ± 0.044

Variant | abundance fitness
N28F | -0.177 ± 0.12
N28Q | -0.147 ± 0.054
R11F | -0.023 ± 0.056
R11L | 0.161 ± 0.034
R11M | 0.226 ± 0.044
C37S | -0.568 ± 0.052
C37L | -0.719 ± 0.049
C37I | -0.825 ± 0.17
C37G | -0.471 ± 0.047
C37Q | -0.557 ± 0.06
F17D | -0.467 ± 0.087
F17M | -0.571 ± 0.074
F17N | -1.02 ± 0.2
F17V | -0.662 ± 0.051
F17H | -0.65 ± 0.12
F17K | -0.676 ± 0.087
F17P | -0.624 ± 0.082
P45K | 0.091 ± 0.05
P45G | -0.204 ± 0.051
P45Q | 0.162 ± 0.047
P45M | -0.073 ± 0.062
E41Q | -0.056 ± 0.06
E41V | -0.063 ± 0.042
E41D | -0.173 ± 0.06

Variant | abundance fitness
E41T | -0.11 ± 0.045
I32G | 0.195 ± 0.04
I32Q | 0.045 ± 0.045
I32E | 0.074 ± 0.088
I32N | -0.05 ± 0.1
I32L | -0.056 ± 0.036
I32D | -0.079 ± 0.13
I32M | 0.161 ± 0.045
V53I | -0.385 ± 0.093
V51T | 0.184 ± 0.057
V51R | -0.474 ± 0.058
V51K | -0.636 ± 0.2
V51A | -0.047 ± 0.08
K15C | -0.196 ± 0.049
K15Q | -0.082 ± 0.047
K15N | -0.058 ± 0.066
K15G | -0.088 ± 0.041
K15T | -0.154 ± 0.046
K15Y | -0.191 ± 0.062
K15V | -0.359 ± 0.048
L44C | -0.389 ± 0.099
L44M | -0.077 ± 0.064
L44F | -0.196 ± 0.051
L44V | -0.236 ± 0.057

Variant | abundance fitness
S46H | -0.004 ± 0.13
S46L | 0.151 ± 0.04
S46W | 0.077 ± 0.053
S46G | 0.243 ± 0.05
S46F | -0.01 ± 0.089
N35V | 0.255 ± 0.034
N35S | 0.23 ± 0.038
N35M | 0.191 ± 0.039
N35E | 0.331 ± 0.045
N35T | 0.22 ± 0.037
N35R | 0.172 ± 0.034
N35H | 0.178 ± 0.059
N35G | 0.436 ± 0.039
N35Q | 0.173 ± 0.058
N35C | 0.237 ± 0.051
N35I | 0.047 ± 0.066
L42S | 0.096 ± 0.042
L42C | 0.045 ± 0.05
L42A | 0.11 ± 0.045
L42Q | 0.295 ± 0.052
L42P | -0.606 ± 0.076
L42M | -0.046 ± 0.057
L42F | 0.034 ± 0.066
L42G | -0.026 ± 0.041

Variant | abundance fitness
L42N | -0.317 ± 0.14
H58Q | 0.065 ± 0.044
H58T | -0.226 ± 0.052
H58R | -0.147 ± 0.037
H58G | -0.203 ± 0.039
H58I | -0.157 ± 0.057
H58M | -0.109 ± 0.065
H58F | -0.105 ± 0.057
D4H | -0.192 ± 0.097
D4P | -0.494 ± 0.061
D4K | -0.068 ± 0.06
D4F | -0.234 ± 0.058
D4A | -0.466 ± 0.069
D4L | -0.298 ± 0.039
D4S | -0.158 ± 0.044
D4Y | -0.18 ± 0.064
T59N | -0.058 ± 0.081
T59A | 0.263 ± 0.042
T59G | 0.161 ± 0.038
T59V | 0.127 ± 0.046
T59H | -0.148 ± 0.096
R27V | -0.262 ± 0.038
R27P | 0.219 ± 0.053
R27T | 0.095 ± 0.037

Variant | abundance fitness
R27W | -0.144 ± 0.046
R27S | -0.003 ± 0.039
H31I | -0.113 ± 0.059
H31T | -0.423 ± 0.076
H31F | 0.027 ± 0.069
H31M | -0.113 ± 0.047
H31Y | -0.106 ± 0.062
H31A | -0.204 ± 0.046
H31N | -0.237 ± 0.063
H31P | -0.711 ± 0.076
H31G | 0.08 ± 0.037
R22I | -0.1 ± 0.065
R22S | -0.32 ± 0.04
R22T | -0.066 ± 0.045
R22C | -0.494 ± 0.071
R22W | -0.18 ± 0.038
R22H | -0.854 ± 0.14
R22L | -0.098 ± 0.031
S38V | -0.008 ± 0.057
S38H | -0.545 ± 0.066
S38W | -0.282 ± 0.1
S38D | -0.665 ± 0.085
S20D | 0.13 ± 0.067
